The data set concerns the molecule itself. The experiment in a line: thioflavin T fluorescence.

Numbering of substitutions follows the chain as printed. Numbers in names are those of the source.

B1: FUS LC, low complexity domain of Fused in sarcoma (FUS), residues 1-163 (domain or fragment, UniProt P35637 1-163, looked up)
chain: MASNDYTQQATQSYGAYPTQPGQGYSQQSSQPYGQQSYSGYSQSTDTSGYGQSSYSSYGQSQNTGYGTQSTPQGYGSTGGYGSSQSSQSSYGQQSSYPGYGQQPAPSSTSGSYGSSSQSSSYGQPQSGSYSQQPSYGGQQQSYGQQQSYNPPQGYGQQNQYNS
In the case of B1, the binding result is listed as “binds”.

B2: FUS LC G156E, low complexity domain of FUS (residues 1-163) with the pathogenic G156E mutation (domain or fragment, UniProt P35637 1-163, looked up)
chain: B1 chain with G156E
On to B2, for which the binding result was “binds”.

For the origin of these results see publication doi:10.1101/2020.10.19.345710 (bioRxiv, 2020).
